Results reported in patent US10363306B2, “Cytokines and neuroantigens for treatment of immune disorders” (East Carolina University, priority 2009, dated 2019).

Key:
EAE in SJL mice = experiment: Treatment of passively induced EAE and second active challenge in SJL mice; type: in vivo; settings: murine IFNβ/PLP139-151 fusion protein; 2 nanomoles s.c. days 12, 14, 16
Method: FIG. 8. […] Shown are the time-courses of EAE (A) and the percent maximal weight (B) from example 4.
On day 0, mice were passively challenged with activated, encephalitogenic T cells specific for the PLP139-151 epitope. […] On day 12, three groups of mice were matched for clinical severity. On days 12, 14, and 16, mice were treated with the IFNβ-NAg fusion protein (2 nanomoles), a synthetic PLP139-151 peptide (2 nanomoles), or saline. Treatments were given by subcutaneous injections of proteins or peptides in saline. On day 24, mice were actively challenged to induce a second bout of EAE by challenge with 200 micrograms of PLP139-151 in Complete Freund's Adjuvant. […] Furthermore, the fusion protein promoted a tolerogenic effect that ameliorated the subsequent bout of EAE (FIG. 8A). These observations support the concept that the IFNβ-NAg fusion protein may have clinical activities conducive for the treatment of autoimmune demyelinating disease of the central nervous system.

Conal.8D9 = experiment: Anti-proliferative/killing activity on Conal.8D9 T cells; type: cell-based, rat; settings: baculovirus supernatants
Method: (§1) FIG. 1. The IFNβ-NAg his-tagged fusion protein was biologically active and was purified on nickel resins. (A) To assess whether IFNβ-NAg induced class I MHC expression, thymocytes (5×10^6/ml in complete RPMI) were cultured with or without IFNβ-NAg for 2 days and then were stained with B5 (anti-MHC-I), OX18 (anti-MHC-I), R73 (anti-TCRβ), or OX81 (anti-IL4; isotype control) and were analyzed by flow cytometry. (B) To assess IFNβ-mediated anti-proliferative activity, supernatants from two independently derived IFNβ-NAg expression systems as well as supernatants from several control expression systems were added at designated titrations (x-axis) to IL-2 stimulated cultures of BN-GP T cells. (C) To assess the specificity of anti-proliferative activity, baculovirus supernatants containing IFNβ-NAg were added at designated titrations to cultures of rat (R1T, BN-GP, RsL.11T, RsL.11, or Conal.8D9) or mouse (CTLL) T cells. Proliferative assays (B & C) were pulsed with [^3H]thymidine on the second day of a 3-day culture. (D) Shown is a representative SDS-PAGE analysis of purified IFNβ-NAg. […]
(§2) Cultures were pulsed with 1 uCi of [^3H]thymidine (6.7 Ci/mmol, New England Nuclear) during the last day of a 3 or 4 day culture. […] [^3H]thymidine incorporation into DNA was measured by use of a Wallac 1450 Microbeta Plus liquid scintillation counter. […]

CTLL T cells = experiment: Anti-proliferative/killing activity on CTLL T cells; type: cell-based, mouse; settings: murine CTLL T cells; baculovirus supernatants
Method: as §1, §2

RsL.11 clone = experiment: Anti-proliferative/killing activity on RsL.11 T cells; type: cell-based, rat; settings: baculovirus supernatants
Method: as §1, §2

thymocytes = experiment: Induction of class I MHC expression on thymocytes (flow cytometry); type: cell-based; settings: 2 days of culture
Method: FIG. 1. The IFNβ-NAg his-tagged fusion protein was biologically active and was purified on nickel resins. (A) To assess whether IFNβ-NAg induced class I MHC expression, thymocytes (5×10^6/ml in complete RPMI) were cultured with or without IFNβ-NAg for 2 days and then were stained with B5 (anti-MHC-I), OX18 (anti-MHC-I), R73 (anti-TCRβ), or OX81 (anti-IL4; isotype control) and were analyzed by flow cytometry. (B) To assess IFNβ-mediated anti-proliferative activity, supernatants from two independently derived IFNβ-NAg expression systems as well as supernatants from several control expression systems were added at designated titrations (x-axis) to IL-2 stimulated cultures of BN-GP T cells. (C) To assess the specificity of anti-proliferative activity, baculovirus supernatants containing IFNβ-NAg were added at designated titrations to cultures of rat (R1T, BN-GP, RsL.11T, RsL.11, or Conal.8D9) or mouse (CTLL) T cells. Proliferative assays (B & C) were pulsed with [^3H]thymidine on the second day of a 3-day culture. (D) Shown is a representative SDS-PAGE analysis of purified IFNβ-NAg.
T cells were incubated with a 1/20 titration of a concentrated supernatant containing the designated mAb for 45 minutes at 4° C. […] Data were acquired with a Becton Dickinson FACScan flow cytometer and were analyzed with the CELLQuest software program. […]

RsL.11T = experiment: Anti-proliferative/killing activity on RsL.11T T cells; type: cell-based, rat; settings: baculovirus supernatants
Method: as §1, §2

R1T = experiment: Anti-proliferative/killing activity on R1T T cells; type: cell-based, rat; settings: baculovirus supernatants
Method: as §1, §2

B1: IFNβ-NAg: Fusion protein: rat IFNβ, enterokinase linker (GDDDDKG), encephalitogenic 73-87 peptide of guinea pig MBP, C-terminal 6-histidine tag (protein)
chain: IDYKQLQFRQSTSIRTCQKLLRQLNGRLNLSYRTDFKIPMEVMHPSQMEKSYTAFAIQVMLQNVFLVFRSNFSSTGWNETIVESLLDELHQQTELLEIILKEKQEERLTWVTSTTTLGLKSYYWRVQRYLKDKKYNSYAWMVVRAEVFRNFSIILRLNRNFQNGDDDDKGPQKSQRSQDENPVVHHHHHH
EAE in SJL mice
  EAE-associated cachexia (percent maximal weight): acutely reversed EAE-associated cachexia
Conal.8D9
  cell death of T cell line: directly caused the death
CTLL T cells
  cell death of T cell line: did not kill
RsL.11 clone
  cell death of T cell line: directly caused the death
thymocytes; 1% titration of baculovirus expression supernatant
  expression of MHC-I on immature thymocytes: induced the expression of MHC-I
thymocytes; baculovirus expression supernatant
  TCRβ expression: did not affect TCRβ expression
RsL.11T
  cell death of T cell line: directly caused the death
R1T
  cell death of T cell line: did not kill
